The results in this text go back to patent EP0797662B1 (NEW YORK UNIVERSITY, dated 1995).

The experiment concerns the target T1, SHC (54 kDa band, in lysates of NIH 3T3 cells expressing the EGFR/HER2 chimera) (mouse, UniProt P98083-2 1-469, limits assumed, tyrosine phosphorylated after EGF stimulation).
T1 sequence (looked up): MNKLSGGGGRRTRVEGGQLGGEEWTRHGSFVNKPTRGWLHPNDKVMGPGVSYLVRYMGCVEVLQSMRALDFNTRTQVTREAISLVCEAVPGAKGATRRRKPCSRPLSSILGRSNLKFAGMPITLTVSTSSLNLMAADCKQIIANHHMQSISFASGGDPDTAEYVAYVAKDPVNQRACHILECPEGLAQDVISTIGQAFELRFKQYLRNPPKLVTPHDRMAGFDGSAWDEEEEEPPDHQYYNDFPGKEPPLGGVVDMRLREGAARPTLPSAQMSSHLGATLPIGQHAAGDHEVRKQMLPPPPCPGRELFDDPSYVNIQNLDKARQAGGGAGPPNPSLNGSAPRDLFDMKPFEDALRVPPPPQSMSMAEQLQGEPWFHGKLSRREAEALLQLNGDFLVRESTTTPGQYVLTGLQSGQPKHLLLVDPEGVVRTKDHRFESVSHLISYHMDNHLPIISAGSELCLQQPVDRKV
In words: blot of lysate of NIH 3T3 cells with the chimera probed with 32P-labelled GST-GRB-7 SH2.

B1: GST fusion protein of the GRB-7 SH2 domain (amino acids 419-535) in pGSTag (other, mouse, UniProt Q03160 419-535, looked up)
chain: CSGSSLSAAIHRTQPWFHGRISREESQRLIGQQGLVDGVFLVRESQRNPQGFVLSLCHLQKVKHYLILPSEDEGCLYFSMDEGQTRFTDLLQLVEFHQLNRGILPCLLRHCCARVAL
modifications: 32P-phosphate at the protein kinase A site of the vector when used as the probe
notes: range 419-535; also called GST-GRB-7-SH2; [32P]GRB-7 SH2 domain; not shown: glutathione S-transferase of the pGSTag vector; protein kinase A phosphorylation site and linker of pGSTag
As for B1, the binding result was “binds”.
